Kd, koff and kon data for 2 substances are collected here from US20250002564A1.

The target of assay [1] is mouse FcγRI (mouse) (UniProt P26151).
Assay [2] concerns the target mouse FcRn (mouse) (UniProt Q61559).
Assay [3] has the same target. Put plainly: pH 5.6.

Bounds are passed on as bounds.

Chain of mouse FcRn (mouse) (Q61559 22-297 limits assumed, chain 1 of 2): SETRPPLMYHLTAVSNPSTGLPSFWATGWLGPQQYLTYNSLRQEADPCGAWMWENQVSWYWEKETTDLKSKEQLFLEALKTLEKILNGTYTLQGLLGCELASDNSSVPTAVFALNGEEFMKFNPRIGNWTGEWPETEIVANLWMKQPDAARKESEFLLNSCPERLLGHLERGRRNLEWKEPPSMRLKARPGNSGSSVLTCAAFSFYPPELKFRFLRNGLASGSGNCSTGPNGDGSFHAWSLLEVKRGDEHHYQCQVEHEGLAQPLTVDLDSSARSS
Chain of mouse FcRn (mouse) (chain, as listed by the source limits assumed, chain 2 of 2): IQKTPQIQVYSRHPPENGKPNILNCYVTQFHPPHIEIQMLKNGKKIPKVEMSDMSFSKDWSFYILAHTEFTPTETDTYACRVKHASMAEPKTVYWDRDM
Chain of mouse FcγRI (mouse) (P26151 25-297 limits assumed): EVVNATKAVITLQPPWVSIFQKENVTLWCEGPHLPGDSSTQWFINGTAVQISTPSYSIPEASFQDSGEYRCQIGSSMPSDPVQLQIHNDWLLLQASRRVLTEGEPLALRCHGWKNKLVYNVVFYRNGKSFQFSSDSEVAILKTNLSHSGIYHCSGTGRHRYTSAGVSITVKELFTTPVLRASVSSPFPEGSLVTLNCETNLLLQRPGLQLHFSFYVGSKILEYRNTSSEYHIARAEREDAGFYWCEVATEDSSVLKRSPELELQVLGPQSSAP

As to “mouse surrogate Multabody (HD37 IgG2a scFab and scFc on mouse apoferritin light chain), wild-type Fc”, in assay [1], the Kd was < 1 pM, the koff is < 1e-07 s⁻¹ and the kon is 939000 M⁻¹ s⁻¹. The same substance displayed an on-rate constant (kon) in assay [2] of 682000 M⁻¹ s⁻¹. Further, in assay [3], the Kd was < 1 pM and the koff is < 1e-07 s⁻¹.

In assay [2], mouse surrogate Multabody with LALAP Fc displayed a kon of 2.4e+06 M⁻¹ s⁻¹. For the same substance, in assay [3], the Kd is < 1 pM and the koff is < 1e-07 s⁻¹.
